The values that follow come from PMC6468809, “Structural Analysis of the 42 kDa Parvulin of Trypanosoma brucei” (Biomolecules, 2019).

*1 amine or outer side, *2 acyl side, *3 side chain or, on linkers, in order; H or OH if unused. Where no end group is shown, it is not given here. [ ]: non-standard residue; d: D form. pT = C[C@@H](OP(=O)(O)O)[C@H](N)C(=O)O; Suc = O=C(CCC(=O)[*:2])[*:1]

Test [1] deals with T1, TbPar42 PPIase domain (264-383) (T. brucei, succinyl on the N-terminus; phosphothreonine at position 2; C-terminal amide / 15N-labelled, wild type; entity position 1 = Pro264 (offset 263), so checks are His271, Cys333, Leu374; residual GP from).
T1 chain: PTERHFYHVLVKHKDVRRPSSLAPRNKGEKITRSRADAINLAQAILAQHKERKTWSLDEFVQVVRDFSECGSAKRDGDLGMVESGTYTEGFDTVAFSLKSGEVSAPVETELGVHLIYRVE
As to the kind of experiment: NMR titration; 440 uM 15N-labelled NterFHA or PPIase in 50 mM potassium phosphate, pH 6.26, 90%/10% H2O/D2O; peptide added stepwise to 13 mM; 1H-15N-HSQC or SOFAST spectra, 700 MHz, 27 °C. The following applies: both partners purified.

Test [2] deals with TbPar42 N-terminal extended FHA domain (1-177) (Trypanosoma brucei, UniProt Q57XM6 1-177). In words: NMR titration; unlabelled Ala-Glu-Ala-pThr-Ala-Glu-Xaa peptide added stepwise up to 8 mM to 250 µM 15N-labelled NterFHA; 1H-15N-HSQC, 27 °C; mean KD values. The note with it: both partners purified.

Broadly, the Kd is the free concentration of one partner at which half of the binding sites on the other are occupied at equilibrium, for simple one-to-one binding. The low end stands for higher affinity, the high end for lower affinity.

B1: Suc-Ala-pThr-Pro-Ala-NH2 (peptide)
peptide: Suc-A[pT]PA-NH2
SMILES: C[C@H](NC(=O)[C@@H]1CCCN1C(=O)[C@@H](NC(=O)[C@H](C)NC(=O)CCC(=O)O)[C@@H](C)OP(=O)(O)O)C(N)=O
notes: also called phosphorylated model peptide; source: synthetic peptide, bought: CASLO
For the molecule B1, the Kd in test [1] was around 10 mM.
In turn, AEA[pT]AEE [Ala-Glu-Ala-pThr-Ala-Glu-Glu] yielded a Kd in test [2] of 5.4 mM.
Same read-out and setting: under AEA[pT]AES [Ala-Glu-Ala-pThr-Ala-Glu-Ser] stands 3.1 mM; under AEA[pT]AED [Ala-Glu-Ala-pThr-Ala-Glu-Asp], 3.4 mM.
Same read-out and setting: under AEA[pT]AEI [Ala-Glu-Ala-pThr-Ala-Glu-Ile] stands 4.1 mM.
The molecule AEA[pT]AEV [Ala-Glu-Ala-pThr-Ala-Glu-Val] registered a Kd in test [2] of 3.9 mM.
